Results from PMC4654632 (Journal of molecular biology, 2012).

Assay: HPLC sedimentation assay of fibril thermodynamic stability
Format: physicochemical
Details: from Cr (Ka = 1/Cr), PBS pH 7.4, 25 °C

wild-type: wild-type amyloid-β 40-residue peptide (Aβ40), made by Fmoc solid-phase synthesis
ΔG (free energy of association): -7.2 ± 0.2 kcal/mol
